Data on 4 molecules can be found in article PMC8528956 (Frontiers in Immunology, 2021).

B1: HC19 IgG (humanized constant domains), RBS-directed (antibody, V domains shown)
VH: QVQLKESGPGLVAPSQSLSITCTVSGFLLISNGVHWVRQPPGKGLEWLGVIWAGGNTNYNSALMSRVSISKDNSKSQVFLKMKSLQTDDTAMYYCARDFYDYDVFYYAMDYWGQGTSVTVSS
VL: QAVVTQESALTTSPGETVTLTCRSSTGAVTTSNYANWVQEKPDHLFTGLIGGTNNRAPGVPARFSGSLIGDKAALTITGAQTEDEAIYFCALWYSNHWVFGGGTKLTVL
notes: source: 293F suspension cells, transient, purified from supernatants (Protein G); copies: 2 + 2
B2: HC45 IgG (humanized constant domains), directed to the vestigial esterase domain (antibody, V domains shown)
VH: QVQLQQPGAELVRPGASVKLSCKASGYTLTTYWMNWFKQRPDQGLEWIGRIDPYDSETHYNQKFKDKAILTVDRSSSTAYMQLSSLTSEDSAVYYCTRFLQITTIIYGMDYWGQGTSVTVSS
VL: DVVMTQTPLSLPVSLGDQASISCRSSQTLVHSNGNTYLHWYLQKPGQSPKLLIYKVSNRFSGVPDRFSGSGSGTDFTLKISRVEAEDLGVYFCSQNTHVPYTFGGGTKLEIK
notes: as for B1
B3: 8H10 IgG (humanized constant domains), directed to the HA trimer interface (antibody, V domains shown)
VH: EVQLQESGEGLVKPGGSLKLSCAASGFTFSNYDMSWVRQTPEKRLEWVAYISSGGDYIYYADTVKGRFTISRDNARNTLYLQMSSLKSEDTAMYYCTRNYYYGSLPVWFAYWGQGTLVTVSG
VL: QAVVTQESALTTSPGETVTLTCRSSTGAVTTSNYANWVQEKPDHLFTGLIGGTNNRAPGVPARFSGSLIGDKAALTITGAQTEDEAIYFCALWYSNHSWVFGGGTKLTVL
notes: as for B1
B4: FI6 IgG, stem-directed (antibody, V domains shown)
VH: QVQLVESGGGVVQPGRSLRLSCAASGFTFSTYAMHWVRQAPGKGLEWVAVISYDANYKYYADSVKGRFTISRDNSKNTLYLQMNSLRAEDTAVYYCAKDSQLRSLLYFEWLSQGYFDYWGQGTLVTVSS
VL: not shown
notes: as for B1

The target in this assay is wild-type H3 A/Hong Kong/1/1968 hemagglutinin, recombinant full-length soluble ectodomain (Influenza A virus A/Hong Kong/1/1968 …, UniProt Q91MA7). The experiment in a line: ELISA. The following applies: both partners purified. (In general: An ELISA detects its analyte on a solid surface through an enzyme-linked reagent.)
B1: the binding result is given as “binds”.
As for B2, the binding result was “binds”.
For the molecule B3, the binding result is given as “binds”.
For the molecule B4, the binding result is listed as “binds”.
